Results taken from patent US6051217, “Therapeutic uses of interleukin-3 (IL-3) multiple mutation polypeptides” (G. D. Searle & Co., dated 2000).
Residue numbers refer to the chain shown, from its start.

T1: hIL-3 receptor (human, UniProt P26951)
T1 sequence: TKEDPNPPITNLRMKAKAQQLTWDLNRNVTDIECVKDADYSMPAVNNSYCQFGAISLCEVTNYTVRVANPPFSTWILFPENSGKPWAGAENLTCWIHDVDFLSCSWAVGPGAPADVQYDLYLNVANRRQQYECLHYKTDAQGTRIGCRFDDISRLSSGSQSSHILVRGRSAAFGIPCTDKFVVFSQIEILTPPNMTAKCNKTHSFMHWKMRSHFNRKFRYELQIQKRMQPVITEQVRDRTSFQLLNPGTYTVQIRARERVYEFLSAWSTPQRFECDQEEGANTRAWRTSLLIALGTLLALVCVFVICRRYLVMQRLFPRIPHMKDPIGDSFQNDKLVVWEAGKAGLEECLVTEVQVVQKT

B1: pMON13285 polypeptide (ligand)
chain: MANCSNMIDEIITHLKQPPLPLLDFNNLNDEDMSILMDNNLRRPNLEAFNRAVKSLQNASAIESILKNLLPCLPLATAAPTRHPIHIKDGDWNEFRRKLTFYLKTLENAQAQQ
B2: pMON13329 polypeptide (ligand)
chain: B1 chain with D38E, H86I, K88R, K104W
B3: pMON13326 polypeptide (ligand)
chain: B1 chain with K104W
B4: pMON13286 polypeptide (ligand)
chain: B1 chain with D38E
B5: pMON13330 polypeptide (ligand)
chain: B1 chain with H83R, H86I, K88R, K104W
B6: pMON13325 polypeptide (ligand)
chain: B1 chain with D38E, K104W
B7: pMON13475 polypeptide (ligand)
chain: MANCSIMIDEAIHHLKRPPAPLLDPNNLNDEDVSILMDRNLRLPNLESFVRAVKNLENASGIEAILRNLQPCLPSATAAPSRHPIIIKAGDWQEFREKLTFYLVTLEQAQEQQ
B8: pMON13367 polypeptide (ligand)
chain: B7 chain with A11I, D30A
B9: pMON13397 polypeptide (ligand)
chain: B7 chain with A11I, D30A, S34D, D38E, Q70W, K88R, A89M
B10: pMON13382 polypeptide (ligand)
chain: B7 chain with A11I, D30A, S34D, D38E, T100Q, V104W
B11: pMON13366 polypeptide (ligand)
chain: B7 chain with A11I, D30N
B12: pMON13393 polypeptide (ligand)
chain: B7 chain with L22S, V33M, D38E
B13: pMON13388 polypeptide (ligand)
chain: B7 chain with A11I, D30A, S34D, P44S
B14: pMON13432 polypeptide (ligand)
chain: B7 chain with L22S, V33M
B15: pMON13396 polypeptide (ligand)
chain: B7 chain with A11I, D30A, S34D, D38E, K88R, A89M
B16: pMON13421 polypeptide (ligand)
chain: B7 chain with L22S, V33M, P44S
B17: pMON13420 polypeptide (ligand)
chain: B7 chain with L22S, P44S
B18: pMON13385 polypeptide (ligand)
chain: B7 chain with A11I, R17V, A20R, L22S, D30A, S34D, D38E
B19: pMON13369 polypeptide (ligand)
chain: B7 chain with A11I
B20: pMON13379 polypeptide (ligand)
chain: B7 chain with A11I, D30A, T100Q
B21: pMON13364 polypeptide (ligand)
chain: NCSIMIDEIIHHLKRPPNPLLDPNNLNSEDMDILMERNLRTPNLLAFVRAVKHLENASAIESILKNLLPCLPLATAAPTRHPIHIKDGDWNEFRRKLTFYLKTLENAQAQQ
B22: pMON13375 polypeptide (ligand)
chain: MANCSIMIDEIIHHLKRPPAPLLDPNNLNAEDVDILMERNLRLPNLESFVRAVKNLENASGIEAILRNLQPCLPSATAAPSRHPIIIKAGDWQEFREKLTFYLVTLE
B23: pMON13404 polypeptide (ligand)
chain: B22 chain with T100Q
B24: pMON13376 polypeptide (ligand)
chain: B22 chain with A2D, I11A, T100Q
B25: pMON13312 polypeptide (ligand)
chain: MANCSIMIDEIIHHLKRPPNPLLDPNNLNSEDMDILMERNLRTPNLLAFVRAVKHLENASGIEAILRNLVPCLPSATAAPSRHPITIKAGDWQEFREKLTFYLVTLEQAQEQQ
B26: pMON13373 polypeptide (ligand)
chain: B7 chain with A11I, V33M
B27: pMON13391 polypeptide (ligand)
chain: B7 chain with A11I, L22S, D30A, S34D, D38E
B28: pMON13374 polypeptide (ligand)
chain: B7 chain with A11I, D30S, V33M
B29: pMON13406 polypeptide (ligand)
chain: B25 chain with M7A, V70Q, T86I
B30: pMON13387 polypeptide (ligand)
chain: B7 chain with A11I, D30A, S34D
B31: pMON13370 polypeptide (ligand)
chain: B7 chain with A11I, D30A, V33M
B32: pMON13403 polypeptide (ligand)
chain: B25 chain with E38D, R39S, V50P, R51H, V53S, H55Q, V70Q, T86I
B33: pMON13380 polypeptide (ligand)
chain: B7 chain with R17V, P25S, D30S, V33M, S34D, D38E, E47L, S48A, T100Q
B34: pMON13407 polypeptide (ligand)
chain: B25 chain with M33V, V70Q, T86I
B35: pMON13392 polypeptide (ligand)
chain: B7 chain with A11I, S34D, D38E
B36: pMON13400 polypeptide (ligand)
chain: B25 chain with I8P, I11A, R17I, L22S, P25S, N26A, M33V, D34S, V70Q, T86I
B37: pMON13313 polypeptide (ligand)
chain: B7 chain with A11I, D30A, S34D, D38E, Q70V, I86T, T105S, Q108H
B38: pMON13389 polypeptide (ligand)
chain: B7 chain with A11I, V33M, S34D, D38E
B39: pMON13405 polypeptide (ligand)
chain: B25 chain with M7A, M33V, V70Q, T86I
B40: pMON13409 polypeptide (ligand)
chain: B25 chain with M37L, V70Q, T86I
B41: pMON13368 polypeptide (ligand)
chain: B7 chain with R17V, P25S, D30S, V33M, S34D, D38E, E47L, S48A
B42: pMON13402 polypeptide (ligand)
chain: B25 chain with I11L, R17I, L22S, P25S, N26A, M33V, D34S, V70Q, T86I
B43: pMON13410 polypeptide (ligand)
chain: B25 chain with M37D, V70Q, T86I
B44: pMON13408 polypeptide (ligand)
chain: B25 chain with M37I, V70Q, T86I
B45: pMON13381 polypeptide (ligand)
chain: B7 chain with A11I, D30A, S34D, D38E, Q70W
B46: pMON13411 polypeptide (ligand)
chain: B25 chain with V70Q, T86I, E97L, T100Q, V104S
B47: pMON13384 polypeptide (ligand)
chain: B7 chain with A11I, D30A, S34D, D38E, T100Q

Biological target: T1, hIL-3 receptor
Test: cell-based or functional assay

Relative Biological Activity (AML 193 proliferation)	Binder
32 EC50 (1-133)hIL-3 / EC50 mutant	B1
10 EC50 (1-133)hIL-3 / EC50 mutant	B2
25 EC50 (1-133)hIL-3 / EC50 mutant	B3
8 EC50 (1-133)hIL-3 / EC50 mutant	B4
19 EC50 (1-133)hIL-3 / EC50 mutant	B5
8 EC50 (1-133)hIL-3 / EC50 mutant	B6
7 EC50 (1-133)hIL-3 / EC50 mutant	B7
36 EC50 (1-133)hIL-3 / EC50 mutant	B8
16 EC50 (1-133)hIL-3 / EC50 mutant	B9
38 EC50 (1-133)hIL-3 / EC50 mutant	B10
38 EC50 (1-133)hIL-3 / EC50 mutant	B11
32 EC50 (1-133)hIL-3 / EC50 mutant	B12
23 EC50 (1-133)hIL-3 / EC50 mutant	B13
10 EC50 (1-133)hIL-3 / EC50 mutant	B14
20 EC50 (1-133)hIL-3 / EC50 mutant	B15
0.5 EC50 (1-133)hIL-3 / EC50 mutant	B16
19 EC50 (1-133)hIL-3 / EC50 mutant	B17
1 EC50 (1-133)hIL-3 / EC50 mutant	B18
10 EC50 (1-133)hIL-3 / EC50 mutant	B19
0.9 EC50 (1-133)hIL-3 / EC50 mutant	B20
13 EC50 (1-133)hIL-3 / EC50 mutant	B21
14 EC50 (1-133)hIL-3 / EC50 mutant	B22
1.3 EC50 (1-133)hIL-3 / EC50 mutant	B23
0.4 EC50 (1-133)hIL-3 / EC50 mutant	B24

Relative Biological Activity (AML 193 proliferation)	Binder
4 EC50 (1-133)hIL-3 / EC50 mutant	B25
12 EC50 (1-133)hIL-3 / EC50 mutant	B26
30 EC50 (1-133)hIL-3 / EC50 mutant	B27
6 EC50 (1-133)hIL-3 / EC50 mutant	B28
5 EC50 (1-133)hIL-3 / EC50 mutant	B29
32 EC50 (1-133)hIL-3 / EC50 mutant	B30
6 EC50 (1-133)hIL-3 / EC50 mutant	B31
0.03 EC50 (1-133)hIL-3 / EC50 mutant	B32
0.05 EC50 (1-133)hIL-3 / EC50 mutant	B33
16 EC50 (1-133)hIL-3 / EC50 mutant	B34
17 EC50 (1-133)hIL-3 / EC50 mutant	B35
0.09 EC50 (1-133)hIL-3 / EC50 mutant	B36
8 EC50 (1-133)hIL-3 / EC50 mutant	B37
10 EC50 (1-133)hIL-3 / EC50 mutant	B38
9 EC50 (1-133)hIL-3 / EC50 mutant	B39
15 EC50 (1-133)hIL-3 / EC50 mutant	B40
1.6 EC50 (1-133)hIL-3 / EC50 mutant	B41
20 EC50 (1-133)hIL-3 / EC50 mutant	B42
0.4 EC50 (1-133)hIL-3 / EC50 mutant	B43
7 EC50 (1-133)hIL-3 / EC50 mutant	B44
10 EC50 (1-133)hIL-3 / EC50 mutant	B45
1.2 EC50 (1-133)hIL-3 / EC50 mutant	B46
0.25 EC50 (1-133)hIL-3 / EC50 mutant	B47
